Assay results as given in patent US20100086958A1, “NOVEL ENZYME” (priority 2008, published 2010).
Like-named read-outs stand apart in the source and are kept apart here.

Experiments:
[1] = Serov et al. (2002), cited from earlier work; for Km: read-out: Km NADP^+
[2] = cited from earlier work; for Km: read-out: Km NAD^+
[3] = Steady state kinetics for NADP^+ (FDH-catalysed formate oxidation); format: biochemical; conditions: for Km / kcat NADP^+: cofactor NADP^+, 0.18M formate
Experimental: (§1) BcenFDH1 (Bsp184FDH) and BspFDH2 (Bsp383FDH) catalyzed oxidation of formate to CO2 was monitored by UV/Vis spectrophotometry in a 96-well plate format. A series of eight solutions of formate (0-200 mM) were prepared by successive dilutions of a stock solution of 0.5 M sodium formate in 0.1 M sodium phosphate buffer, pH 7.0. From this series, 170 μL was transferred into wells of the 96-well plate. 10 μL of the FDHs from a stock solution (64.1 μM for BcenFDH1 (Bsp184FDH) and 78.0 μM for BspFDH2 (Bsp383FDH)) were added into each well and equilibrated for 3 min at 30° C. The reaction was initiated by addition of 20 μL of NAD^+ or NADP^+ solution from a freshly prepared stock (10 mM) using an 8-channel pipette. The plate was then immediately placed into the plate reader. The plate was shaken for 5 s to ensure thorough mixing, and then time-based measurements were recorded every 15 s for 10 min. The rate of formate oxidation was calculated using an extinction coefficient of 3.38 mM^−1 (for 200 μL), which was determined using NADH standards. Km and Vmax values were obtained by non-linear regression to the Michaelis-Menten equation (Eq.1 below) using Origin v7 (Microcal Software Inc.).
(§2) Similar procedure were used for determination of Michaelis-Menten parameters for NAD^+ and NADP^+. A series of eight solutions of cofactor (0-75 mM) were prepared by successive dilutions of stock solutions. […] of sodium formate solutions (180 mM in well) were transferred into wells of the 96-well plate. 10 μL of the FDHs from a stock solution (64.1 μM for BcenFDH1 (Bsp184FDH) and 78.0 μM for BspFDH2 (Bsp383FDH)) were added into each well and equilibrated for 3 min at 30° C. The reaction was initiated by addition of 20 μL of NAD^+ or NADP^+ solutions using an 8-channel pipette. The plate was then immediately placed into the plate reader. The plate was shaken for 5 s to ensure thorough mixing, and then time-based measurements were recorded every 15 s for 10 min. The rate of formate oxidation was calculated using an extinction coefficient of 3.38 mM^−1 (for 200 μL), which was determined using NADH standards. Km and Vmax values were obtained by non-linear regression to the Michaelis-Menten equation as before.

[4] = Steady state kinetics for NAD^+ (FDH-catalysed formate oxidation); format: biochemical; conditions: for Km / kcat NAD^+: cofactor NAD^+, 0.18M formate
Experimental: as §1, §2

[5] = Steady state kinetics for formate oxidation; format: biochemical
Experimental: as §1

[6] = Assay of enzyme activity (specific activity, U/mg); format: biochemical; conditions: unit = μmol formate oxidized per min in the presence of co-factor; This work
Experimental: The reaction was initiated by addition of NAD^+. The total volume of the reaction mixture was 1 mL. Specific activity (U/mg enzyme) was defined as number of μmols of product formed per mg enzyme per minute.

[7] = pH profile determination of FDH-catalysed formate oxidation; format: biochemical; conditions: pHs as low 4 or as high as 10.5
Experimental: The pH profiles for BcenFDH1 (Bsp184FDH) and BspFDH2 (Bsp383FDH) catalyzed formate oxidation, shown in FIG. 13(a) and (b), were investigated by Uv/Vis spectrophotometry in a 96-well plate format. […] From this series, 170 μL was transferred into wells of the 96-well plate. 10 μL of the FDHs from a stock solution solution (64.1 μM for BcenFDH1 (Bsp184FDH) and 78.0 μM for BspFDH2 (Bsp383FDH)) were added into each well and equilibrated for 3 min at 30° C. The reaction was initiated by addition of 20 μL of NAD^+ solution from a freshly prepared stock (10 mM) using an 8-channel pipette. The plate was then immediately placed into the plate reader. The plate was shaken for 5 s to ensure thorough mixing, and then time-based measurements were recorded every 15 s for 10 min. The rate of formate oxidation was calculated using an extinction coefficient of 3.38 mM^−1 (for 200 μL).

[8] = Thermal stability study (remaining activity after incubation); format: physicochemical
Experimental: FIGS. 19 and 20—show the effect of temperature on the stability of the Bsp184FDH and Bsp383FDH enzymes. In FIG. […] In FIG. 20 (1) Bsp184FDH (2.1 mg/mL) and (2) Bsp383FDH (1.5 mg/mL) were incubated at 60° C. and 70° C. for 48 hours period in a similar way. Remaining activities were assayed under standard assay conditions and were expressed as the percentage of activities.
Thermal stability for purified wild-type BcenFDH1 (Bsp184FDH) and BspFDH2 (Bsp383FDH) catalyzed formate oxidation were investigated by Uv/V is spectrophotometry in a 96-well plate format. The results are illustrated in FIGS. 19 and 20. […] In addition, time based-thermal stability for purified wild-type BcenFDH1 (Bsp184FDH) and BspFDH2 (Bsp383FDH) catalyzed formate oxidation were also investigated at 60° C. and 70° C. over 48 hours in a similar way. The samples were spun down briefly to remove any precipitations before use. 10 μL of heat-treated BcenFDH1 and BspFDH2 were added into each well and equilibrated for 3 min at 30° C. after adding 170 μL of 200 mM sodium formate (dissolving in 50 mM sodium phosphate buffer, pH 7.0.) The reaction was initiated by addition of 20 μL of NADP^+ solution from a freshly prepared stock of 20 mM using an 8-channel pipette. The plate was then immediately placed into the plate reader. The plate was shaken for 5 seconds to ensure thorough mixing. Time-based measurements were recorded every 10 s for 10 min. The rate of formate oxidation was calculated using the absorption coefficient of 3.38 mM^−1 (for 200 μL).

[9] = cited from earlier work
[10] = 0.25 M formate, Serov et al. (2002)
[11] = 0.5 M formate, Serov et al. (2002)

B1: D197A/Y198R SceFDH: D197A/Y198R mutant of S. cerevisiae FDH, data from Serov et al. (2002) (protein, UniProt Q08911 1-376, looked up, variant D197A Y198R)
Formate dehydrogenase 1: MSKGKVLLVLYEGGKHAEEQEKLLGCIENELGIRNFIEEQGYELVTTIDKDPEPTSTVDRELKDAEIVITTPFFPAYISRNRIAEAPNLKLCVTAGVGSDHVDLEAANERKITVTEVTGSNVVSVAEHVMATILVLIRNYNGGHQQAINGEWDIAGVAKNEYDLEDKIISTVGAGRIGYRVLERLVAFNPKKLLYYARQELPAEAINRLNEASKLFNGRGDIVQRVEKLEDMVAQSDVVTINCPLHKDSRGLFNKKLISHMKDGAYLVNTARGAICVAEDVAEAVKSGKLAGYGGDVWDKQPAPKDHPWRTMDNKDHVGNAMTVHISGTSLDAQKRYAQGVKNILNSYFSKKFDYRPQDIIVQNGSYATRAYGQKK
- kcat NADP^+ ([1]; 0.25 M formate): 0.13 ± 0.01 s⁻¹
- Km ([1]; 0.25 M formate): 4.5 ± 0.5 mM
- kcat NADP^+ ([1]; 0.5 M formate): 0.16 ± 0.02 s⁻¹
- Km ([1]; 0.5 M formate): 7.6 ± 0.9 mM
- kcat NAD^+ [2, 10]: 0.095 ± 0.01 s⁻¹
- Km [2, 10]: 7.6 ± 0.8 mM
- kcat NAD^+ [2, 11]: 0.12 ± 0.02 s⁻¹
- Km [2, 11]: 8.4 ± 0.9 mM

B2: Bsp184FDH: wild type FDH from Burkholderia cenocepacia PC184, Seq ID No: 2, C-terminal His-tagged (protein, listed as Burkholderia cenocepacia)
chain: MATVLCVLYPDPVDGYPPRYVRDTIPVITHYADGQTAPTPAGPPGFRPGELVGSVSGALGLRGYMEAHGHTLIVTSDKDGPDSEFERRLPEADVVISQPFWPAYLSAERIARAPKLKLALTAGIGSDHVDLDAAARARITVAEVTGSNSISVAEHVVMTTLALVRNYLPSHAVAQQGGWNIADCVSRSYDVEGMHFGTVGAGRIGLAVLRRLQPFGLQLHYTQRHRLDASIEQALALTYHADVASLASAVDIVNLQIPLYPSTEHLFDAAMIARMKRGAYLINTARAKLVDRDAVVNALTSGHLAGYGGDVWFPQPAPADHPWRTMPFNGMTPHISGTSLSAQARYAAGTLEILQCWFDGRPIRNEYLIVDGGTLAGTGAQSYRLT
modifications: C-terminal His tag
- Km [3]: 1.1 ± 0.1 mM
- kcat NADP^+ [3]: 3.07 ± 0.083 s⁻¹
- cofactor preference for NADP^+, times greater than those of known FDHs such as CmetFDH ([3]; relative to CmetFDH): 10^6 times
- Km [4]: 15 ± 4 mM
- kcat NAD^+ [4]: 0.567 ± 0.12 s⁻¹
- kcat ([5]; formate oxidation with NADP^+): 2.2073 ± 0.2553 s⁻¹
- Km ([5]; formate oxidation with NAD^+): 99.2 ± 7.11 mM
- kcat ([5]; formate oxidation with NAD^+): 0.34 ± 0.0123 s⁻¹
- activity with NADP^+ [6]: 3.12 U/mg
- activity with NAD^+ [6]: 0.48 U/mg
- activity at extreme pH [7]: highly active
- temperature at which the enzymes denature [8]: 80 °C
- activity lost upon incubation ([8]; 55° C. for 2 hours): no activity was lost
- stability at room temperature ([8]; room temperature for weeks): stable

B3: CmetFDH: NADH-dependent wild-type FDH from Candida methylica, Seq ID No: 6 (protein, listed as Candida methylica)
chain: MKIVLVLYDAGKHAADEEKLYGCTENKLGIANWLKDQGHELITTSDKEGETSELDKHIPDADIIITTPFHPAYITKERLDKAKNLKSVVVAGVGSDHIDLDYINQTGKKISVLEVTGSNVVSVAEHVVMTMLVLVRNFVPAHEQIINHDWEVAAIAKDAYDIEGKTIATIGAGRIGYRVLERLLPFNPKELLYYDYQALPKEAEEKVGARRVENIEELVAQADIVTVNAPLHAGTKGLINKELLSKFKKGAWLVNTARGAICVAEDVAAALESGQLRGYGGDVWFPQPAPKDHPWRDMRNKYGAGNAMTPHYSGTTLDAQTRYAEGTKNILESFFTGKFDYRPQDIILLNGEYVTKAYGKHDKK
- Km [3]: 7 ± 1.4 mM
- kcat NADP^+ [3]: 0.005 ± 0 s⁻¹
- formate oxidation, times more effective with NAD^+ than with NADP^+ [4]: 1.7×10^4 times
- Km [4]: 0.2 mM
- kcat NAD^+ [4]: 1.67 ± 0.033 s⁻¹
- Km ([5]; formate oxidation with NAD^+): 8.29 ± 1 mM
- kcat ([5]; formate oxidation with NAD^+): 6.9875 ± 0.2928 s⁻¹

B4: PseFDH: FDH from Pseudomonas sp. 101, Seq ID No: 3 (protein, listed as Pseudomonas sp.)
chain: MAKVLCVLYDDPVDGYPKTYARDDLPKIDHYPGGQTLPTPKAIDFTPGQLLGSVSGELGLRKYLESNGHTLVVTSDKDGPDSVFERELVDADVVISQPFWPAYLTPERIAKAKNLKLALTAGIGSDHVDLQSAIDRNVTVAEVTYCNSISVAEHVVMMILSLVRNYLPSHEWARKGGWNIADCVSHAYDLEAMHVGTVAAGRIGLAVLRRLAPFDVHLHYTDRHRLPESVEKELNLTWHATREDMYPVCDVVTLNCPLHPETEHMINDETLKLFKRGAYIVNTARGKLCDRDAVARALESGRLAGYAGDVWFPQPAPKDHPWRTMPYNGMTPHISGTTLTAQARYAAGTR
- kcat NAD^+ ([2]; data from Serov et al. (2002)): 10.0 ± 0.6 s⁻¹
- Km ([2]; data from Serov et al. (2002)): 0.06 ± 0.005 mM
- formate oxidation, times more effectively with NAD^+ than with NADP^+ ([9]; Tishkov et al. (1991)): 2400 times
- activity with NAD^+ ([9]; unit = μmol formate oxidized per min, literature): 6-8 U/mg
